What was measured:
Assay type in all cases: biochemical
[1] = target: T1, Flt3 (Homo sapiens, UniProt P36888); test: Millipore radiometric kinase activity assay, Flt3 (h)
T1 construct: purchased Millipore (assay service)
T1 sequence (P36888 27-993): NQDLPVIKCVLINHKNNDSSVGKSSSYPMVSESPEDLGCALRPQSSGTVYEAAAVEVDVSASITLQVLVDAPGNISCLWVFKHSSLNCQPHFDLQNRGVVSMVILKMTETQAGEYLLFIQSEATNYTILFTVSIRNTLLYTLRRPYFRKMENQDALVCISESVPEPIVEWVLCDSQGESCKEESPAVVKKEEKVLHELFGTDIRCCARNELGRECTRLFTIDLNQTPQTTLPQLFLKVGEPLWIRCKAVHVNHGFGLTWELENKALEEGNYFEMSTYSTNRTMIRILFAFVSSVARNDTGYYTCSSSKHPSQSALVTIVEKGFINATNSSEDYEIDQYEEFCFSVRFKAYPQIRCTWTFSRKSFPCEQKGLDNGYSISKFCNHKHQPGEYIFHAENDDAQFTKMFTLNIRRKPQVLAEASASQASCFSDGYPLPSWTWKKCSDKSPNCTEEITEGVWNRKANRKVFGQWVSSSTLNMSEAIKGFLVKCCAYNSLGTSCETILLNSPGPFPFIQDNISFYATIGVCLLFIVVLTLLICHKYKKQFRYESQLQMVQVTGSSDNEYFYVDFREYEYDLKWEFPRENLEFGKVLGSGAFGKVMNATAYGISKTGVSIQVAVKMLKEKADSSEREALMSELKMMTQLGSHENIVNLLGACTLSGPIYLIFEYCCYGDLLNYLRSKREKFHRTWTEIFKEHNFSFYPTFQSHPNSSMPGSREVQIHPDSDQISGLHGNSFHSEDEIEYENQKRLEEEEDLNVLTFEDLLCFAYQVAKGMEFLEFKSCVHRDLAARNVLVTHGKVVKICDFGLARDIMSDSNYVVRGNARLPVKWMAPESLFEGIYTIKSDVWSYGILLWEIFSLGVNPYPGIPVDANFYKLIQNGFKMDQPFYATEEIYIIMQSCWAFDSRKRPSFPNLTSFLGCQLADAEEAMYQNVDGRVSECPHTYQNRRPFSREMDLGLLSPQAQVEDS
Procedure: (§1) A commercial radiometric assay service (Millipore, Billerica, Mass.) was used to test the specificity and potency of peptides containing a coupled transduction domain and therapeutic domain, hereinafter “complete peptides”). In these assays, if the kinase is not inhibited by an inhibitor peptide, a positively charged substrate is phosphorylated with a radiolabeled phosphate group from an ATP.
(§2) In a final reaction volume of 25 μL, Flt3 (h) (5-10 mU) is incubated with 8 mM MOPS pH 7.0, 0.2 mM EDTA, 50 μM […] [SEQ ID NO: 48], 10 mM MgAcetate and [γ-^33P-ATP] (specific activity approx. 500 cpm/pmol, concentration as required). The reaction is initiated by the addition of the MgATP mix. After incubation for 40 minutes at room temperature, the reaction is stopped by the addition of 5 μL of a 3% phosphoric acid solution. 10 μL of the reaction is then spotted onto a P30 filtermat and washed three times for 5 minutes in 75 mM phosphoric acid and once in methanol prior to drying and scintillation counting.
(§3) IC50 values for inhibitor peptides were determined using Millipore's IC50Profiler Express service. The IC50 value was estimated from a 10-point curve of one-half log dilutions. For peptides tested for specificity, the concentration of the peptides that inhibited approximately 95% of MK2 activity was chosen to profile against a battery of kinases related to MK2, cell viability, or human disease from MilliporeKinaseProfiler service. In both assays, compounds were supplied in dimethylsulfoxide (DMSO). Every kinase activity measurement was conducted in duplicate.
(§4) Therapeutic inhibitor peptides were assayed for activity against human kinases related to MK2, cell viability, or human disease. The assays were performed using concentrations of therapeutic inhibitor peptides that yielded 2% to 8% of normal MK2 activity. Error is reported as the standard deviation between 2 samples, and “c” is rat AMPK whereas all other kinases used are human kinases.

[2] = target: T2, PKCβI (Homo sapiens, UniProt P05771); test: Millipore radiometric kinase activity assay, PKCβI (h)
T2 construct: purchased Millipore (radiometric assay service)
Procedure: as §1
In a final reaction volume of 25 μL, PKCβI (h) (5-10 mU) is incubated with 20 mM HEPES pH 7.4, 0.03% Triton X-100, 0.1 mM CaCl2, 0.1 mg/mL phosphatidylserine, 10 μg/mL diacylglycerol, 0.1 mg/mL histone H1, 10 mM MgAcetate and [γ-^33P-ATP] (specific activity approx. 500 cpm/pmol, concentration as required). The reaction is initiated by the addition of the MgATP mix. After incubation for 40 minutes at room temperature, the reaction is stopped by the addition of 5 μL of a 3% phosphoric acid solution. 10 μL of the reaction is then spotted onto a P30 filtermat and washed three times for 5 minutes in 75 mM phosphoric acid and once in methanol prior to drying and scintillation counting.
as §3, §4

[3] = target: T3, Abl (Homo sapiens, UniProt P00519); test: Millipore radiometric kinase activity assay, Abl (h)
T3 construct: purchased Millipore (assay service)
Procedure: as §1
as §2, with “Abl” for “Flt3”
as §3, §4

[4] = target: T4, CK1δ (Homo sapiens, UniProt P48730); test: Millipore radiometric kinase activity assay, CK1δ (h)
T4 construct: purchased Millipore (assay service)
Procedure: as §1
In a final reaction volume of 25 μL, CK1δ (h) (5-10 mU) is incubated with 8 mM MOPS pH 7.0, 0.2 mM EDTA, 200 μM KRRRALS(p)VASLPGL [SEQ ID NO: 54], 10 mM MgAcetate and [γ-^33P-ATP] (specific activity approx. 500 cpm/pmol, concentration as required). The reaction is initiated by the addition of the MgATP mix. After incubation for 40 minutes at room temperature, the reaction is stopped by the addition of 5 μL of a 3% phosphoric acid solution. 10 μL of the reaction is then spotted onto a P30 filtermat and washed three times for 5 minutes in 75 mM phosphoric acid and once in methanol prior to drying and scintillation counting.
as §3, §4

T4 sequence (P48730 whole entry): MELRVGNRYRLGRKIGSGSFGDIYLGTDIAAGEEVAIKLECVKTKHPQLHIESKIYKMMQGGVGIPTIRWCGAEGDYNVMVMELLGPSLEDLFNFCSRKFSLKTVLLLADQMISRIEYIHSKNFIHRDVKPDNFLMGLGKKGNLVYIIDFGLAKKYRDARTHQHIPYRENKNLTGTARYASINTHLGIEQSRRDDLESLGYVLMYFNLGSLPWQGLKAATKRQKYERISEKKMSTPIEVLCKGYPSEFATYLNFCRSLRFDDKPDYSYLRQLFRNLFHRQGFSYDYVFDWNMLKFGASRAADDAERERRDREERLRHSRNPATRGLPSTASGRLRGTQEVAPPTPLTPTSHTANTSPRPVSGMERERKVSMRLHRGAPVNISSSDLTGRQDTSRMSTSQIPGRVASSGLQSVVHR
T3 sequence (P00519 whole entry): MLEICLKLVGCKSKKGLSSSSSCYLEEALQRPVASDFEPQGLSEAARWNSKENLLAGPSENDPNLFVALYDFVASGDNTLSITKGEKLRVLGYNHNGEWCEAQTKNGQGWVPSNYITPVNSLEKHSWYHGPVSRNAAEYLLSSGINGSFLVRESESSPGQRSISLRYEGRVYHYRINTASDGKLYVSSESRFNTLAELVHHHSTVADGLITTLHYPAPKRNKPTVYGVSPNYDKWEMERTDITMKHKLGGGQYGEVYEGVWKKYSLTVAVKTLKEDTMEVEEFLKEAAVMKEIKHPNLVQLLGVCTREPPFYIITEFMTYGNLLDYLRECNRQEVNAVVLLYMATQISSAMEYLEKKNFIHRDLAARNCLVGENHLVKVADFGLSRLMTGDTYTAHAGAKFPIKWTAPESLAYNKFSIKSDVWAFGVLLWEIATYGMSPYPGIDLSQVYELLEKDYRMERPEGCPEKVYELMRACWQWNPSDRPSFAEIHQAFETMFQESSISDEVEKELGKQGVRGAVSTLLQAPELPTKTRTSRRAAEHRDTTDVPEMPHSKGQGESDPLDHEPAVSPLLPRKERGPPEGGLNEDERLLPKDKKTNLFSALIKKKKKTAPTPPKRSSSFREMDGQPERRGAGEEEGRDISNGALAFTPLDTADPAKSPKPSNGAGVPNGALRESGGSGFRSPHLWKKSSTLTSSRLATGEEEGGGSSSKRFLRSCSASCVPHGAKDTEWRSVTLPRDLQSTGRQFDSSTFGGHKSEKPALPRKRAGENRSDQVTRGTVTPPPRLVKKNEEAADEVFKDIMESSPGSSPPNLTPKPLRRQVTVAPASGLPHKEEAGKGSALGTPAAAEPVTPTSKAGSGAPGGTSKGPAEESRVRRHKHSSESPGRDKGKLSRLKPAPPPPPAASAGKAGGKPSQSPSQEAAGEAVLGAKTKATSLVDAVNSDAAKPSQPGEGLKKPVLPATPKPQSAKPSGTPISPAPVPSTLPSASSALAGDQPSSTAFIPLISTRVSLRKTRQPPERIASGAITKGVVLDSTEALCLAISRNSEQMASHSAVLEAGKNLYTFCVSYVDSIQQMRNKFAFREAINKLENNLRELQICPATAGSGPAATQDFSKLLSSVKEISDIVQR
T2 sequence (P05771 whole entry): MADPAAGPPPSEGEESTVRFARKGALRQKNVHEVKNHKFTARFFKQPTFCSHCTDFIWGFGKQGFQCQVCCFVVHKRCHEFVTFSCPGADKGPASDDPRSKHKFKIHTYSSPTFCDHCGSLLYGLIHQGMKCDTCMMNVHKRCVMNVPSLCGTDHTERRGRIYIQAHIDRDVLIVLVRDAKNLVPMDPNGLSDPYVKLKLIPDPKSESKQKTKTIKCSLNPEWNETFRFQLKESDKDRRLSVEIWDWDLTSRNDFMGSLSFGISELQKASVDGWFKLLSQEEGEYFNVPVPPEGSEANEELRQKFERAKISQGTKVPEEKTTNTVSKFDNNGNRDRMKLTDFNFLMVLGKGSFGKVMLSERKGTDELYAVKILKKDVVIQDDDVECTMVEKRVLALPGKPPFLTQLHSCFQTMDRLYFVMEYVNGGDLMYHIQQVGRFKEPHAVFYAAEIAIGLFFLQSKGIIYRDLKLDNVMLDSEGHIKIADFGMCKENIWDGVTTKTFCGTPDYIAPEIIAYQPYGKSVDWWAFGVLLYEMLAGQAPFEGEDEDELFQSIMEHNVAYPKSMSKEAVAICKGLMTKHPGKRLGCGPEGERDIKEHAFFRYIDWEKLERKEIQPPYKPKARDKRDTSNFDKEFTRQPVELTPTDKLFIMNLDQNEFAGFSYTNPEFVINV

Row | Sequence | Flt3 Kinase Activity (%) (+SD %) ([1]; peptide 30 μM) | Flt3 Kinase Activity (%) (+SD %) ([1]; peptide 100 μM) | PKCβ1 Kinase Activity (%) (+SD %) ([2]; peptide 30 μM) | PKCβ1 Kinase Activity (%) (+SD %) ([2]; peptide 100 μM) | Abl Kinase Activity (%) (+SD %) ([3]; peptide 30 μM) | Abl Kinase Activity (%) (+SD %) ([3]; peptide 100 μM) | CK1δ Kinase Activity (%) (+SD %) ([4]; peptide 30 μM) | CK1δ Kinase Activity (%) (+SD %) ([4]; peptide 100 μM)
1 | WLRRIKAWLRRIKALNRQLGVAA | 38 (1) % | 14 (0) % | 8 (4) % | 73 (0) % | 24 (5) % | 41 (2) % | 52 (1) % | 99 (3) %
2 | KAFAKLAARLYRKALARQLGVAA | – | 20 (3) % | – | 23 (3) % | – | 55 (0) % | – | 97 (2) %

Reference: patent US9327008B2, “Cell-permeant peptide-based inhibitor of kinases” (Purdue Research Foundation, priority 2008, dated 2016)
